In series [1] the target is Helios (Mus musculus) (UniProt P81183). The series can be described thus: cell_activity. To be noted: NIH3T3 reporter; requires Ikaros sites.
Series [2] addresses Ikaros (UniProt Q03267). The series can be described thus: cell_activity. The conditions noted are these: NIH3T3 reporter.

The values below come from patent publication US20050130265.

Chain of Ikaros (Q03267 other isoform, or with tags, fused parts or gaps): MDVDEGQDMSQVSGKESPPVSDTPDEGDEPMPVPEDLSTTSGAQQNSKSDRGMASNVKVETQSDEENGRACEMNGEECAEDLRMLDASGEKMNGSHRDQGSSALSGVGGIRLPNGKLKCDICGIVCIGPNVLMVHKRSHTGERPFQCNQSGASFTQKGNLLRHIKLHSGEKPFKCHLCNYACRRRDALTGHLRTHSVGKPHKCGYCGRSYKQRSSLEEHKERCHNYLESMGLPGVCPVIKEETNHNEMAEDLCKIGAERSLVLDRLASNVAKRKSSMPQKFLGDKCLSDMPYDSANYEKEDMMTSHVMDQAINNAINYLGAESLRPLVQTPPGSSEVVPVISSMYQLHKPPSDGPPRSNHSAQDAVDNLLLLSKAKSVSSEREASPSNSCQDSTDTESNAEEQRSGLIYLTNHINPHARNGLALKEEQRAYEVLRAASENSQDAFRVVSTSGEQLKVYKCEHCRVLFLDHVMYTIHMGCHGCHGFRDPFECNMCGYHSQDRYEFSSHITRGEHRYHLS
Chain of Helios (Mus musculus) (P81183 other isoform, or with tags, fused parts or gaps): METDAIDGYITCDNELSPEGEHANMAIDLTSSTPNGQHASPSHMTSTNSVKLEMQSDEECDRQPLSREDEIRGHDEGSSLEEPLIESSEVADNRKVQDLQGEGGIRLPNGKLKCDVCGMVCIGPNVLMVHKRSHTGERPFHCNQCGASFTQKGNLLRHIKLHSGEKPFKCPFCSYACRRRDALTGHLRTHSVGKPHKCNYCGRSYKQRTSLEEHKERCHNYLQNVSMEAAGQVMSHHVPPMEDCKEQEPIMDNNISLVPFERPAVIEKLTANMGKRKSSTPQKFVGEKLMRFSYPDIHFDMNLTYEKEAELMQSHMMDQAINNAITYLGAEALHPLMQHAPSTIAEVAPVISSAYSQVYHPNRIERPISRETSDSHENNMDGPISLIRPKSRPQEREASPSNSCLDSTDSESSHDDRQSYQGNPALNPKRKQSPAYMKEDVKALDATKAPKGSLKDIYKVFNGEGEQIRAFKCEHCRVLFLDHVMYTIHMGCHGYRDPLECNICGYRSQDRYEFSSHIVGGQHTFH

Take 4x IkBS2 reporter: the values for the activity (fold activation) in series [1] and in series [2] were 5 and 7.8, respectively.
